Measured values published in PMC3445780.
pKd: −log10 of the molar value.

Biological target: EphB4 receptor (UniProt P54760)
Assay: SPR

Chain of UniProt P54760 (P54760 16-987): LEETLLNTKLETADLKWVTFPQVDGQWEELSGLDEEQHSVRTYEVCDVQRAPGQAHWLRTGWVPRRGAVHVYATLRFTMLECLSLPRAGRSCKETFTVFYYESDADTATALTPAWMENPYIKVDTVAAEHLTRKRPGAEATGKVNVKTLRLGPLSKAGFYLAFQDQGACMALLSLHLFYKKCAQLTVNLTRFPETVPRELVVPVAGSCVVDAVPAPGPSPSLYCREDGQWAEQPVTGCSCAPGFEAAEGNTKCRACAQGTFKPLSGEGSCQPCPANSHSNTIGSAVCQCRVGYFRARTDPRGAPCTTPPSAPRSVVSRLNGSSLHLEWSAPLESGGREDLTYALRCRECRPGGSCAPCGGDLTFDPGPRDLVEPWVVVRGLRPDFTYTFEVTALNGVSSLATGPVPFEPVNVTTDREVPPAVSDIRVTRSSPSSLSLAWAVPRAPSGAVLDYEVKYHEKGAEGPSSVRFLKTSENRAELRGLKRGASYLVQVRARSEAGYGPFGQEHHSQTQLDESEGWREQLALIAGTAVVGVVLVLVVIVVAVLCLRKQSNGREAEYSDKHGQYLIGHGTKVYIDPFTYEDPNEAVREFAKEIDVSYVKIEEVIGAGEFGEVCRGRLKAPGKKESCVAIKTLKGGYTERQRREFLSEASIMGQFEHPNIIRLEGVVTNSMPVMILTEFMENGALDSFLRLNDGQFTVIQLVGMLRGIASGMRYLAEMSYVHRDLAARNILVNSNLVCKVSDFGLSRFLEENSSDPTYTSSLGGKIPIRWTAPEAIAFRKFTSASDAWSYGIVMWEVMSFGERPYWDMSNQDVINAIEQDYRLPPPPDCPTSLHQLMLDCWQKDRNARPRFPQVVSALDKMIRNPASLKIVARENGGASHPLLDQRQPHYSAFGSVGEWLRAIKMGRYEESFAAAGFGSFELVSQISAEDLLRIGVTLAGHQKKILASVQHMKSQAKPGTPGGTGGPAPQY

- pKd: 8.36
Substance: cyclic peptide c(TNYL-RAW)
